This note sets out measurements from IntAct's records for PubMed 25910212.

B1: Tumor necrosis factor receptor superfamily member 13B (Homo sapiens), O14836-2 (parent)
chain: MSGLGRSRRGGRSRVDQEERWSLSCRKEQGKFYDHLLRDCISCASICGQHPKQCAYFCENKLRSPVNLPPELRRQRSGEVENNSDNSGRYQGLEHRGSEASPALPGLKLSADQVALVYSTLGLCLCAVLCCFLVAVACFLKKRGDPCSCQPRSRPRQSPAKSSQDHAMEAGSPVSTSPEPVETCSFCFPECRAPTQESAVTPGTPDPTCAGRWGCHTRTTVLQPCPHIPDSGLGIVCVPAQEGGPGA
B2: Arylsulfatase A (Homo sapiens), P15289 (parent)
chain: MGAPRSLLLALAAGLAVARPPNIVLIFADDLGYGDLGCYGHPSSTTPNLDQLAAGGLRFTDFYVPVSLCTPSRAALLTGRLPVRMGMYPGVLVPSSRGGLPLEEVTVAEVLAARGYLTGMAGKWHLGVGPEGAFLPPHQGFHRFLGIPYSHDQGPCQNLTCFPPATPCDGGCDQGLVPIPLLANLSVEAQPPWLPGLEARYMAFAHDLMADAQRQDRPFFLYYASHHTHYPQFSGQSFAERSGRGPFGDSLMELDAAVGTLMTAIGDLGLLEETLVIFTADNGPETMRMSRGGCSGLLRCGKGTTYEGGVREPALAFWPGHIAPGVTHELASSLDLLPTLAALAGAPLPNVTLDGFDLSPLLLGTGKSPRQSLFFYPSYPDEVRGVFAVRTGKYKAHFFTQGSAHSDTTADPACHASSSLTAHEPPLLYDLSKDPGENYNLLGGVAGATPEVLQALKQLQLLKAQLDAAVTFGPSQVARGEDPALQICCHPGCTPRPACCHCPDPHA
partner: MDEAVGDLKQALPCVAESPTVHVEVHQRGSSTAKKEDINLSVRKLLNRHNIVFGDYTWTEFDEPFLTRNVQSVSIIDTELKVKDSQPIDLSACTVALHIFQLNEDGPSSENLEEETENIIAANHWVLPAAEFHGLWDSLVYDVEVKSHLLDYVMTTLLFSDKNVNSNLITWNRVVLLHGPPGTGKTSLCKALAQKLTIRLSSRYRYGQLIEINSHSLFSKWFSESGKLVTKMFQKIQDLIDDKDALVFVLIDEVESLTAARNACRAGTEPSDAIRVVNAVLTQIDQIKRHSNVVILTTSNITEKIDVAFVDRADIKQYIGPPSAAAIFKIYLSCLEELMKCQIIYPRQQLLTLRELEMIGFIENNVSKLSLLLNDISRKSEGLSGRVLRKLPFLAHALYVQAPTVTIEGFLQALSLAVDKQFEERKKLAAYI
B3: Myelin proteolipid protein (Homo sapiens), P60201-2 (parent)
chain: MGLLECCARCLVGAPFASLVATGLCFFGVALFCGCGHEALTGTEKLIETYFSKNYQDYEYLINVIHAFQYVIYGTASFFFLYGALLLAEGFYTTGAVRQIFGDYKTTICGKGLSATFVGITYALTVVWLLVFACSAVPVYIYFNTWTTCQSIAFPSKTSASIGSLCADARMYGVLPWNAFPGKVCGSNLLSICKTAEFQMTFHLFIAAFVGAAATLVSLLTFMIAATYNFAVLKLMGRGTKF
partner: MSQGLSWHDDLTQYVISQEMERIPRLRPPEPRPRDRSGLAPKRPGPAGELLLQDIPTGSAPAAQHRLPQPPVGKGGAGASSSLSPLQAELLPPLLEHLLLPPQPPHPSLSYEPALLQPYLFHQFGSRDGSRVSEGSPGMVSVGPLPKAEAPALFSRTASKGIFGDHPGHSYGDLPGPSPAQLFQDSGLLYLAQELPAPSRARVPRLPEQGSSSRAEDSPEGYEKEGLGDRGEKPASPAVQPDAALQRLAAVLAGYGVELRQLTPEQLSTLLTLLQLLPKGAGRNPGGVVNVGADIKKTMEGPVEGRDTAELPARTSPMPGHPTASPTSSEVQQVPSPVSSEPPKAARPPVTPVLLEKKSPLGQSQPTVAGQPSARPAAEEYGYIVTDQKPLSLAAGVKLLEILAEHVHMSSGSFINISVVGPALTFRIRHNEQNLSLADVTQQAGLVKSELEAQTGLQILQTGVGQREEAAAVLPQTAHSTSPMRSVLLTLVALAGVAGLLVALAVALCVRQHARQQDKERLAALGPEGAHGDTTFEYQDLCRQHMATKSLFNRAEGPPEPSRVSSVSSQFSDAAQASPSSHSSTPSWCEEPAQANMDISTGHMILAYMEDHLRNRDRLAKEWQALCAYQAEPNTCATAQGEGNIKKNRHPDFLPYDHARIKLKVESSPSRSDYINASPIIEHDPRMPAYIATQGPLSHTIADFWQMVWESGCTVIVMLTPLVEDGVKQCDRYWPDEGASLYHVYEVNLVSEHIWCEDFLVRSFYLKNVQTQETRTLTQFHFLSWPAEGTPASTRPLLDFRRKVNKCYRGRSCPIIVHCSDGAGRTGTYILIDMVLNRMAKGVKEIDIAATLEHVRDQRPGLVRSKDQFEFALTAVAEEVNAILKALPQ
B4: DNA mismatch repair protein Mlh1 (Homo sapiens), P40692 (parent)
chain: MSFVAGVIRRLDETVVNRIAAGEVIQRPANAIKEMIENCLDAKSTSIQVIVKEGGLKLIQIQDNGTGIRKEDLDIVCERFTTSKLQSFEDLASISTYGFRGEALASISHVAHVTITTKTADGKCAYRASYSDGKLKAPPKPCAGNQGTQITVEDLFYNIATRRKALKNPSEEYGKILEVVGRYSVHNAGISFSVKKQGETVADVRTLPNASTVDNIRSIFGNAVSRELIEIGCEDKTLAFKMNGYISNANYSVKKCIFLLFINHRLVESTSLRKAIETVYAAYLPKNTHPFLYLSLEISPQNVDVNVHPTKHEVHFLHEESILERVQQHIESKLLGSNSSRMYFTQTLLPGLAGPSGEMVKSTTSLTSSSTSGSSDKVYAHQMVRTDSREQKLDAFLQPLSKPLSSQPQAIVTEDKTDISSGRARQQDEEMLELPAPAEVAAKNQSLEGDTTKGTSEMSEKRGPTSSNPRKRHREDSDVEMVEDDSRKEMTAACTPRRRIINLTSVLSLQEEINEQGHEVLREMLHNHSFVGCVNPQWALAQHQTKLYLLNTTKLSEELFYQILIYDFANFGVLRLSEPAPLFDLAMLALDSPESGWTEEDGPKEGLAEYIVEFLKKKAEMLADYFSLEIDEEGNLIGLPLLIDNYVPPLEGLPIFILRLATEVNWDEEKECFESLSKECAMFYSIRKQYISEESTLSGQQSEVPGSIPNSWKWTVEHIVYKALRSHILPPKHFTEDGNILQLANLPDLYKVFERC

The variants in the first experiment derive from B1. Particulars: with sgta_human SGTA.
Regarding A103T, the “effect of a mutation on the interaction” value is given as “with no effect”.

On to C58R, for which the “effect of a mutation on the interaction” value is recorded as “with no effect”.

Turning to P205L, the “effect of a mutation on the interaction” value is recorded as “with no effect”.

For the variant V200F, the “effect of a mutation on the interaction” value is given as “with no effect”.

L125R: the “effect of a mutation on the interaction” value is on record as “disrupting interaction strength”.

For the variant K142M, the “effect of a mutation on the interaction” value is recorded as “with no effect”.

On to V174A, for which the “effect of a mutation on the interaction” value is recorded as “with no effect”.

The variants in another experiment derive from B2. The following applies: with pch2_human TRIP13, Q15645.
For N350S, the “effect of a mutation on the interaction” value was “with no effect”.

Take Y201C: the “effect of a mutation on the interaction” value is “with no effect”.

The variants in a further experiment derive from B3. The following applies: with PTPRN.
Consider P15L, for which the “effect of a mutation on the interaction” value was “disrupting interaction strength”.

On to A213E, for which the “effect of a mutation on the interaction” value is “disrupting interaction strength”.

As for L87P, the “effect of a mutation on the interaction” value is “disrupting interaction strength”.

For W128L, the “effect of a mutation on the interaction” value is given as “disrupting interaction strength”.

Variants of B4 are the subject of another experiment. The following applies: with AP2B1, P63010-2.
With R472I, the “effect of a mutation on the interaction” value was “with no effect”.

As for G244D, the “effect of a mutation on the interaction” value is “with no effect”.

In another experiment the parent is B4. Particulars: with ccd33_human CCDC33, Q8N5R6.
For R472I, the “effect of a mutation on the interaction” value is “with no effect”.

Consider G244D, for which the “effect of a mutation on the interaction” value is given as “disrupting interaction strength”.

A further experiment covers variants of B4. Particulars: with taso2_human TASOR2, Q5VWN6.
With R472I, the “effect of a mutation on the interaction” value is reported as “with no effect”.

For the variant G244D, the “effect of a mutation on the interaction” value is “disrupting interaction strength”.
